The results in this text go back to US6127144, “Method for expression of proteins in bacterial host cells” (Cangene Corporation, dated 2000).

Test [1] has as its target Boc-APARSPA-bNA.
For test [2], the target named is APA-bNA.
Test [3] has as its target tripeptidyl aminopeptidase-S (Tap) of Streptomyces lividans 66 (Streptomyces lividans 66).
In test [4] the target is T1, tripeptidyl aminopeptidase-S (Tap) of Streptomyces lividans 66 (Streptomyces lividans 66).
T1 chain: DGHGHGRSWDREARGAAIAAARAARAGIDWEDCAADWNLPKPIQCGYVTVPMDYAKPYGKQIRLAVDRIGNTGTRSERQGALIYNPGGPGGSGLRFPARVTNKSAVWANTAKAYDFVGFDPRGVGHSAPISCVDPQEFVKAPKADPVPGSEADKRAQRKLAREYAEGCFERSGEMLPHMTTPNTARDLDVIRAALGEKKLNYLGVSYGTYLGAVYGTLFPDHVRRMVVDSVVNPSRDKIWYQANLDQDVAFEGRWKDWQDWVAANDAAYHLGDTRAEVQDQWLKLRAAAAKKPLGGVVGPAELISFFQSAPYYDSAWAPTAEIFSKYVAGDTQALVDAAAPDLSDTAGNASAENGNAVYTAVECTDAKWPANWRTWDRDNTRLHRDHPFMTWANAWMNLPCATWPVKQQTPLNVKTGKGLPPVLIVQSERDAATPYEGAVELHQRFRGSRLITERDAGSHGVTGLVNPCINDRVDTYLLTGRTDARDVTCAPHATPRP
In words: inactivation kinetics of purified Tap on ice, residual activity with APA-pNA (Example 8). As for the experimental part:
A stock solution of 1.1 uM Tap in 50 mM Tris-HCl, pH 8.0 was prepared. APACMK stock solutions of 11 uM, 13.8 uM, 17.3 uM, 21.7 uM, 27.0 uM, 54.0 uM, 108 uM, and 1.08 mM were prepared. The Substrate Solution was 50 mM Tris-HCl, pH 8.0, 0.8 mM APA-pNA. The inactivation was performed by placing 90 ul of Tap […] in a 1.5 ml Eppendorf tube on ice and adding 10 ul of water (uninhibited control) or 10 ul of APACMK. A 10 ul aliquot was removed immediately and was assayed by adding it to a cuvette containing 390 ul Substrate Solution at 22° C. The initial velocity was obtained from the change in absorbance at 405 nm during the first 10 seconds of the assay. Additional aliquots were removed at time points and assayed by the same method. At APACMK concentrations greater than 5.0 uM in the incubation, it was not possible to remove an aliquot from the incubation before 90% inactivation occurred.

Test [5] addresses T2, D-phenylalanyl-L-prolyl-L-arginine beta-napthylamide.
T2 sequence (peptide, D-phenylalanine at position 1; C-terminal beta-naphthylamide): FPR

Test [6] concerns the target T3, GPM-bNA.
T3 sequence (peptide, C-terminal beta-naphthylamide): GPM

Test [7] addresses T4, L-alanyl-L-prolyl-L-phenylalanine beta-naphthylamide.
T4 sequence (peptide, C-terminal beta-naphthylamide): APF

No end group written: not given here. *: point of attachment. CH2Cl = ClC* Some results are limits rather than exact numbers.

For “soluble SlpE secreted from AP6.SlpE (enzyme)”, the A540, Boc-APARSPA-bNA assay on 20 µl cell-free broth in test [1] is 0.084 A540.

On to “soluble SlpD secreted from AP6.SlpD (enzyme)”, for which, in test [2], the A405, APA-bNA assay on 20 µl cell-free broth was 1.15 A405. The same molecule yielded an A540, Boc-APARSPA-bNA assay on 20 µl cell-free broth in test [1] of 0.278 A540.

The kinact is the maximal first-order rate at which the target is inactivated. As to Ala-Pro-Ala-CH2Cl (also: hydrochloride salt) [L-alanyl-L-prolyl-L-alanine chloromethylketone], in test [3], the inactivation of Tap, residual activity assayed with APA-pNA is above 99% and the kinact was found to be 0.14 min⁻¹. The molecule further came in with a Ki in test [4] of 3.3 µM.

B1: tripeptidyl aminopeptidase-S (Tap) of Streptomyces lividans 66 (enzyme)
chain: DGHGHGRSWDREARGAAIAAARAARAGIDWEDCAADWNLPKPIQCGYVTVPMDYAKPYGKQIRLAVDRIGNTGTRSERQGALIYNPGGPGGSGLRFPARVTNKSAVWANTAKAYDFVGFDPRGVGHSAPISCVDPQEFVKAPKADPVPGSEADKRAQRKLAREYAEGCFERSGEMLPHMTTPNTARDLDVIRAALGEKKLNYLGVSYGTYLGAVYGTLFPDHVRRMVVDSVVNPSRDKIWYQANLDQDVAFEGRWKDWQDWVAANDAAYHLGDTRAEVQDQWLKLRAAAAKKPLGGVVGPAELISFFQSAPYYDSAWAPTAEIFSKYVAGDTQALVDAAAPDLSDTAGNASAENGNAVYTAVECTDAKWPANWRTWDRDNTRLHRDHPFMTWANAWMNLPCATWPVKQQTPLNVKTGKGLPPVLIVQSERDAATPYEGAVELHQRFRGSRLITERDAGSHGVTGLVNPCINDRVDTYLLTGRTDARDVTCAPHATPRP
B1: the Tripeptidyl Aminopeptidase Activity (A540 above background) (A540 above background) in test [5] is 0.02; in test [6], above 3; in test [7], above 3.
